Experimental findings from US20020037286A1 (published 2002) are described below.

One test addresses Ena/VASP proteins. Nature of the test: cell-based or functional assay.
Test [1] addresses Arp2/3 complex (endogenous, Jurkat T-cells). Nature of the test: cell-based or functional assay.
Test [2] addresses T1, zyxin (endogenous, Jurkat T-cells) (human, UniProt Q15942 2-572).
T1 sequence (looked up): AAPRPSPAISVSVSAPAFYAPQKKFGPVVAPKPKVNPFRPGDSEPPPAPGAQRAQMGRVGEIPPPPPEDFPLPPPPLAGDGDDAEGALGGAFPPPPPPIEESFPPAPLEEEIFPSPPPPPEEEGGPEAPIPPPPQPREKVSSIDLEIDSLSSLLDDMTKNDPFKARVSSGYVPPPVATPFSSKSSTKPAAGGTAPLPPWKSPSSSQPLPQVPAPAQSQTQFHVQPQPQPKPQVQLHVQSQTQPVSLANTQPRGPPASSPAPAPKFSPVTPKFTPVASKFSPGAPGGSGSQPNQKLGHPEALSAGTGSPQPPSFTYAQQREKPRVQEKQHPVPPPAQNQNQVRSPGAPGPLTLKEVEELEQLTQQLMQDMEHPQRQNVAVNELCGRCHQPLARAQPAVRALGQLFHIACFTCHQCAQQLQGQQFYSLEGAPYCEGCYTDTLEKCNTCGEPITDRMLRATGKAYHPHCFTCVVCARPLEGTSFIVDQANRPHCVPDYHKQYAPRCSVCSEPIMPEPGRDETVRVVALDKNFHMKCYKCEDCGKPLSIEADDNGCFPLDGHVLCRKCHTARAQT
Kind of test: co-immunoprecipitation from Jurkat T-cell lysate with WASP mAb 67B4, blot probed with zyxin mAb.
Experimental: After quick pelleting, stimulated and control cells were resuspended and incubated in DMEM/HEPES containing 15 λg/ml goat anti mouse IgG antibodies at 37° C. for 2 min. Jurkat NP-40 lysates were prepared at 1×10⁸ cells/ml in ice cold NP-40 lysis buffer (1% (v/v) NP-40, 150 mm NaCl, 10 mM Tris-Cl pH 7.8) supplemented with 60 μg/ml chymostatin, 10 g/ml pepstatin, 5 μg/ml leupeptin, 2 μg/ml aprotinin, 2 mM Pefabloc (Roche Diagnostics), 1 mM Na₃VO₄, and 10 mM NaF. […] Immunoprecipitations were carried out according to standard protocols using 0.2 ml of Jurkat NP-40 lysates derived from 2×10^7 cells.
Immunoprecipitates were resolved by SDS-PAGE. As positive control, Jurkat E6-1 lysates were used.

For GFP-ActA-Repeats, the length of the contact zone between Jurkat T-cells and anti CD3-coated beads with Ena/VASP proteins was found to be 3.84 µm.

In the test with Ena/VASP proteins, GFP-ActA-Repeats F>A yielded a length of the contact zone between Jurkat T-cells and anti CD3-coated beads of 5.16 µm.

The molecule “myc-tagged ScarW (from UniProt Q92558 443-543)” showed a length of the contact zone between the beads and Jurkat T-cells in test [1] of 5 µm.

As for “myc-tagged ScarWA (from UniProt Q92558 443-559)”, in test [1], the length of the contact zone between the beads and Jurkat T-cells was determined as 3.16 µm.

B1: WASP (endogenous, Jurkat T-cells) (other, human, UniProt P42768 2-502, looked up)
chain: SGGPMGGRPGGRGAPAVQQNIPSTLLQDHENQRLFEMLGRKCLTLATAVVQLYLALPPGAEHWTKEHCGAVCFVKDNPQKSYFIRLYGLQAGRLLWEQELYSQLVYSTPTPFFHTFAGDDCQAGLNFADEDEAQAFRALVQEKIQKRNQRQSGDRRQLPPPPTPANEERRGGLPPLPLHPGGDQGGPPVGPLSLGLATVDIQNPDITSSRYRGLPAPGPSPADKKRSGKKKISKADIGAPSGFKHVSHVGWDPQNGFDVNNLDPDLRSLFSRAGISEAQLTDAETSKLIYDFIEDQGGLEAVRQEMRRQEPLPPPPPPSRGGNQLPRPPIVGGNKGRSGPLPPVPLGIAPPPPTPRGPPPPGRGGPPPPPPPATGRSGPLPPPPPGAGGPPMPPPPPPPPPPPSSGNGPAPPPLPPALVPAGGLAPGGGRGALLDQIRQGIQLNKTPGAPESSALQPPPQSSEGLVGALMHVMQKRSRAIHSSDEGEDQAGDEDEDDEWDD
Turning to B1, the binding result in test [2] is listed as “no binding”.
